Test results as given in the supplement of paper PMC9112550, “Optimization of the antimicrobial peptide Bac7 by deep mutational scanning” (BMC Biology, 2022).

Each sequence was assayed on Escherichia coli TOP10 (assay: shrunken log2 fold change of peptide-encoding DNA abundance (4.5 h post-induction vs induction); higher = less antimicrobial activity (less host growth inhibition)). Conditions: time post-induction: 4.5 h; library: site-saturation at positions 5, 18, 19, 20.
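Note: peptides expressed intracellularly from a pBAD plasmid library in pooled LB shake-flask culture, induced with 0.3% L-arabinose, DNA abundance read by NGS, three biological replicates, DESeq2 with apeglm shrinkage.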

RRIRARPPRLPRPRPRPSWFPRP was tested. Which “shrunken log2 fold change” value did it give?
Its value is 0.156.

With RRIRARPPRLPRPRPRPSWKPRP as the sequence, how does the “shrunken log2 fold change” value read?
The value was 0.237.

Which “shrunken log2 fold change” value does the source give for RRIRARPPRLPRPRPRPTACPRP here?
The value was 0.405.

Which “shrunken log2 fold change” value does the source give for RRIRARPPRLPRPRPRPTAFPRP here?
The value was 0.815.

How did the “shrunken log2 fold change” value turn out when RRIRARPPRLPRPRPRPTATPRP was run?
The value was 1.2.

How did the “shrunken log2 fold change” value turn out when RRIRARPPRLPRPRPRPTDNPRP was run?
Its value is 0.152.

For RRIRARPPRLPRPRPRPTETPRP, which “shrunken log2 fold change” value is on record?
Its value is 1.11.

With RRIRARPPRLPRPRPRPTFGPRP as the sequence, how does the “shrunken log2 fold change” value read?
The value was 0.416.

RRIRARPPRLPRPRPRPTFQPRP was tested. Which “shrunken log2 fold change” value did it give?
Its value is 0.529.

For RRIRARPPRLPRPRPRPTFSPRP, which “shrunken log2 fold change” value is on record?
Its value is 0.233.

RRIRARPPRLPRPRPRPTFVPRP was tested. Which “shrunken log2 fold change” value did it give?
Its value is 0.203.

With RRIRARPPRLPRPRPRPTGSPRP as the sequence, how does the “shrunken log2 fold change” value read?
The value was 0.841.

With RRIRARPPRLPRPRPRPTHNPRP as the sequence, how does the “shrunken log2 fold change” value read?
Its value is 0.523.

How did the “shrunken log2 fold change” value turn out when RRIRARPPRLPRPRPRPTINPRP was run?
The value was -0.00779.

RRIRARPPRLPRPRPRPTKIPRP was tested. Which “shrunken log2 fold change” value did it give?
Its value is 0.272.

With RRIRARPPRLPRPRPRPTNPPRP as the sequence, how does the “shrunken log2 fold change” value read?
The value was 0.288.

How did the “shrunken log2 fold change” value turn out when RRIRARPPRLPRPRPRPTPFPRP was run?
The value was 0.609.

With RRIRARPPRLPRPRPRPTQSPRP as the sequence, how does the “shrunken log2 fold change” value read?
Its value is 0.902.

For RRIRARPPRLPRPRPRPTQVPRP, which “shrunken log2 fold change” value is on record?
Its value is 0.224.

Which “shrunken log2 fold change” value does the source give for RRIRARPPRLPRPRPRPTRKPRP here?
The value was 0.574.

For RRIRARPPRLPRPRPRPTRPPRP, which “shrunken log2 fold change” value is on record?
The value was 0.764.

For RRIRARPPRLPRPRPRPTSHPRP, which “shrunken log2 fold change” value is on record?
Its value is -0.016.

Which “shrunken log2 fold change” value does the source give for RRIRARPPRLPRPRPRPTSRPRP here?
Its value is 0.119.

For RRIRARPPRLPRPRPRPVCQPRP, which “shrunken log2 fold change” value is on record?
The value was 0.58.

With RRIRARPPRLPRPRPRPVDLPRP as the sequence, how does the “shrunken log2 fold change” value read?
Its value is 0.174.

How did the “shrunken log2 fold change” value turn out when RRIRARPPRLPRPRPRPVEEPRP was run?
Its value is 1.03.

Which “shrunken log2 fold change” value does the source give for RRIRARPPRLPRPRPRPVEHPRP here?
The value was 0.068.

RRIRARPPRLPRPRPRPVEMPRP was tested. Which “shrunken log2 fold change” value did it give?
The value was 0.196.

Which “shrunken log2 fold change” value does the source give for RRIRARPPRLPRPRPRPVEVPRP here?
The value was 0.236.

Which “shrunken log2 fold change” value does the source give for RRIRARPPRLPRPRPRPVFCPRP here?
The value was 0.487.

Which “shrunken log2 fold change” value does the source give for RRIRARPPRLPRPRPRPVHQPRP here?
Its value is 0.346.

How did the “shrunken log2 fold change” value turn out when RRIRARPPRLPRPRPRPVIDPRP was run?
The value was -0.066.

Which “shrunken log2 fold change” value does the source give for RRIRARPPRLPRPRPRPVILPRP here?
Its value is -0.0803.

Which “shrunken log2 fold change” value does the source give for RRIRARPPRLPRPRPRPVIWPRP here?
The value was 0.322.

With RRIRARPPRLPRPRPRPVKQPRP as the sequence, how does the “shrunken log2 fold change” value read?
Its value is -0.0614.

Which “shrunken log2 fold change” value does the source give for RRIRARPPRLPRPRPRPVKWPRP here?
Its value is 3.06.

For RRIRARPPRLPRPRPRPVMLPRP, which “shrunken log2 fold change” value is on record?
Its value is -0.19.

With RRIRARPPRLPRPRPRPVMWPRP as the sequence, how does the “shrunken log2 fold change” value read?
The value was 0.555.

Which “shrunken log2 fold change” value does the source give for RRIRARPPRLPRPRPRPVNTPRP here?
The value was -0.0807.

Which “shrunken log2 fold change” value does the source give for RRIRARPPRLPRPRPRPVPHPRP here?
Its value is 0.0133.

How did the “shrunken log2 fold change” value turn out when RRIRARPPRLPRPRPRPVQCPRP was run?
Its value is 0.22.

For RRIRARPPRLPRPRPRPVSCPRP, which “shrunken log2 fold change” value is on record?
The value was 0.473.

For RRIRARPPRLPRPRPRPVTIPRP, which “shrunken log2 fold change” value is on record?
The value was -0.207.

RRIRARPPRLPRPRPRPVTPPRP was tested. Which “shrunken log2 fold change” value did it give?
The value was 0.479.

With RRIRARPPRLPRPRPRPVVDPRP as the sequence, how does the “shrunken log2 fold change” value read?
The value was 0.399.

Which “shrunken log2 fold change” value does the source give for RRIRARPPRLPRPRPRPVVVPRP here?
Its value is 0.652.

How did the “shrunken log2 fold change” value turn out when RRIRARPPRLPRPRPRPVVYPRP was run?
The value was -0.285.

Which “shrunken log2 fold change” value does the source give for RRIRARPPRLPRPRPRPVYGPRP here?
The value was -0.235.

With RRIRARPPRLPRPRPRPVYSPRP as the sequence, how does the “shrunken log2 fold change” value read?
Its value is -0.312.

RRIRARPPRLPRPRPRPWACPRP was tested. Which “shrunken log2 fold change” value did it give?
The value was 0.0376.

Which “shrunken log2 fold change” value does the source give for RRIRARPPRLPRPRPRPWCLPRP here?
Its value is -0.214.

For RRIRARPPRLPRPRPRPWCSPRP, which “shrunken log2 fold change” value is on record?
The value was -0.155.

For RRIRARPPRLPRPRPRPWDVPRP, which “shrunken log2 fold change” value is on record?
Its value is 0.246.

How did the “shrunken log2 fold change” value turn out when RRIRARPPRLPRPRPRPWEQPRP was run?
Its value is 0.248.

RRIRARPPRLPRPRPRPWFCPRP was tested. Which “shrunken log2 fold change” value did it give?
Its value is 0.0743.

For RRIRARPPRLPRPRPRPWGHPRP, which “shrunken log2 fold change” value is on record?
The value was 0.0337.

For RRIRARPPRLPRPRPRPWHAPRP, which “shrunken log2 fold change” value is on record?
Its value is 0.288.

With RRIRARPPRLPRPRPRPWHPPRP as the sequence, how does the “shrunken log2 fold change” value read?
Its value is -0.00894.

Which “shrunken log2 fold change” value does the source give for RRIRARPPRLPRPRPRPWHVPRP here?
Its value is -0.0219.

How did the “shrunken log2 fold change” value turn out when RRIRARPPRLPRPRPRPWIRPRP was run?
Its value is -0.132.

Which “shrunken log2 fold change” value does the source give for RRIRARPPRLPRPRPRPWKEPRP here?
The value was 0.00952.

With RRIRARPPRLPRPRPRPWKYPRP as the sequence, how does the “shrunken log2 fold change” value read?
The value was -0.408.

Which “shrunken log2 fold change” value does the source give for RRIRARPPRLPRPRPRPWMDPRP here?
Its value is 0.14.

How did the “shrunken log2 fold change” value turn out when RRIRARPPRLPRPRPRPWMIPRP was run?
Its value is -0.0822.

How did the “shrunken log2 fold change” value turn out when RRIRARPPRLPRPRPRPWMVPRP was run?
The value was 0.0197.

RRIRARPPRLPRPRPRPWNFPRP was tested. Which “shrunken log2 fold change” value did it give?
The value was -0.123.

How did the “shrunken log2 fold change” value turn out when RRIRARPPRLPRPRPRPWNMPRP was run?
Its value is -0.046.

With RRIRARPPRLPRPRPRPWPMPRP as the sequence, how does the “shrunken log2 fold change” value read?
Its value is 0.18.

Which “shrunken log2 fold change” value does the source give for RRIRARPPRLPRPRPRPWSDPRP here?
Its value is 0.15.

With RRIRARPPRLPRPRPRPWSEPRP as the sequence, how does the “shrunken log2 fold change” value read?
The value was 0.0573.

With RRIRARPPRLPRPRPRPWSHPRP as the sequence, how does the “shrunken log2 fold change” value read?
The value was -0.186.

With RRIRARPPRLPRPRPRPWTKPRP as the sequence, how does the “shrunken log2 fold change” value read?
The value was 0.167.

RRIRARPPRLPRPRPRPWWVPRP was tested. Which “shrunken log2 fold change” value did it give?
Its value is 0.066.

RRIRARPPRLPRPRPRPWYSPRP was tested. Which “shrunken log2 fold change” value did it give?
Its value is -0.43.

With RRIRARPPRLPRPRPRPYAMPRP as the sequence, how does the “shrunken log2 fold change” value read?
The value was 0.0392.
